From paper PMC10516938, “Conformational dynamics of cohesin/Scc2 loading complex are regulated by Smc3 acetylation and ATP binding” (Nature Communications, 2023)
Residue numbers refer to the chain shown, from its start.

T1: Smc3^QQ K1004C (S. cerevisiae, UniProt P47037 1-1230, K112Q | K113Q | K1004C)
T1 construct: Smc3, S. cerevisiae; source: S. cerevisiae W303, late G1 arrested cells, whole-cell extract
T1 sequence (looked up): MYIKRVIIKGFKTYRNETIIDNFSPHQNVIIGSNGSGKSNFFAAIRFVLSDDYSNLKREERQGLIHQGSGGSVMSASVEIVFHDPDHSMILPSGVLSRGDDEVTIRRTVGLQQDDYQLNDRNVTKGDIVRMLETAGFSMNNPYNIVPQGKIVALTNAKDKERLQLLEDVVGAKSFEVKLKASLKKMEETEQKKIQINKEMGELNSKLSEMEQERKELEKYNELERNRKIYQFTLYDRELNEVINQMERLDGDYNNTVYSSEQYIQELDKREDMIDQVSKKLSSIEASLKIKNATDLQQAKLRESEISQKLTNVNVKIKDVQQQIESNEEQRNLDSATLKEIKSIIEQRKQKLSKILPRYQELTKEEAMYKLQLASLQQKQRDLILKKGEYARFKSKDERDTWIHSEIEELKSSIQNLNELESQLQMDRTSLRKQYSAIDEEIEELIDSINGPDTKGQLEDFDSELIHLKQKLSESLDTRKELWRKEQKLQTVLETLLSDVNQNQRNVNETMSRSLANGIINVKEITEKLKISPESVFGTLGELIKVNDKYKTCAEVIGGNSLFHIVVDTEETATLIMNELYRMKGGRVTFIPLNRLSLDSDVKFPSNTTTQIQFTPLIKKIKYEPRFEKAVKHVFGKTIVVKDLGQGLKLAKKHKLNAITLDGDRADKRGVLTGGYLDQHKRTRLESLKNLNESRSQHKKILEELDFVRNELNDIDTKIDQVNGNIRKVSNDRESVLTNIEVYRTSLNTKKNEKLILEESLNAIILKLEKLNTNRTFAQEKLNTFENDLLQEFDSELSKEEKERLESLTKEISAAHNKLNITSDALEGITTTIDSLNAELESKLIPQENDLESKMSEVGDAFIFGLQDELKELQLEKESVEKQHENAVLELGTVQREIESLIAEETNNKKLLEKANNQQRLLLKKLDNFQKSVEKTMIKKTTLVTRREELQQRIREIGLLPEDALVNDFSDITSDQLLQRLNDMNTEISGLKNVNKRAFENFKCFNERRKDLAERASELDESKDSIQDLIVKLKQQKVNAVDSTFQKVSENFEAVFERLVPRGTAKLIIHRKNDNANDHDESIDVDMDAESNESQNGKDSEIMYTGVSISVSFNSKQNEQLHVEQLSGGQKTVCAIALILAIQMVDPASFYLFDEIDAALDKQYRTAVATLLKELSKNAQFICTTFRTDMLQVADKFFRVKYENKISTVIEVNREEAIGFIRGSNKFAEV

T2: Smc3^QQ W483R R1008I Q67C (S. cerevisiae, UniProt P47037 1-1230, Q67C | K112Q | K113Q | W483R | R1008I)
T2 construct: Smc3, S. cerevisiae; also called smc3-QQ Q67C with R1008I and W483R; source: S. cerevisiae W303, late G1 arrested cells, whole-cell extract
T2 sequence (looked up): T1 sequence (looked up) with Q67C, W483R, C1004K, R1008I

B1: Scc2 D369C (natural protein, S. cerevisiae, UniProt Q04002 1-1493, looked up)
chain: MSYPGKDKNIPGRIIEALEDLPLSYLVPKDGLAALVNAPMRVSLPFDKTIFTSADDGRDVNINVLGTANSTTSSIKNEAEKERLVFKRPSNFTSSANSVDYVPTNFLEGLSPLAQSVLSTHKGLNDSINIEKKSEIVSRPEAKHKLESVTSNAGNLSFNDNSSNKKTKTSTGVTMTQANLAEQYLNDLKNILDIVGFDQNSAEIGNIEYWLQLPNKKFVLTTNCLTKLQMTIKNITDNPQLSNSIEITWLLRLLDVMVCNIKFSKSSLKMGLDDSMLRYIALLSTIVLFNIFLLGKNDSNLHRESYIMEPVNFLSDLIESLKILTIEYGSLKIEFDTFQEALELLPKYIRNGPFLDDNVTAKLVYIFSCLLMNNDIEATTNIQFQSFWDNVKRISSDILVSLFGSFDQQRGFIIEELLSHIEKLPTKRIQKKLRKVGNQNIYITDFTFTLMSMLENINCYSFCNQMKDIAPENIDLLKNEYKKQEEFLFNIVEHINDTILERFFKNPSALRYVIDNFVQDLLLLISSPQWPVTEKILSSLLKRLLSVYSPSMQVSANIETICLQLIGNIGSTIFDIKCSTRDHEDNNLIKMINYPETLPHFFKSFEECIAYNETIKCRRSATRFLWNLRLGTILILEEYTKDAKEQIITVDNELKKILEQIKDGGLGPELENREADFSTIKLDYFSILHAFELLNLYDPYLKLILSLLAKDKIKLRSTAIKCLSMLASKDKVILSNPMVKETIHRRLNDSSASVKDAILDLVSINSSYFEFYQQINNNYNDDSIMVRKHVLRINEKMYDETNDIVTKVYVIARILMKIEDEEDNIIDMARLILLNRWILKVHEVLDQPEKLKEISSSVLLVMSRVAIMNEKCSQLFDLFLNFYLLNKEAHSKEAYDKITHVLTILTDFLVQKIVELNSDDTNEKNSIVDKQNFLNLLAKFADSTVSFLTKDHITALYPYMVSDEKSDFHYYILQVFRCTFEKLANFKQKFLYDLETTLLSRLPKMNVREIDEAMPLIWSVATHRHDTARVAKACSSCLSHLHPYINKANNEEAAIVVDGKLQRLIYLSTGFARFCFPKPSNDKIAFLQEGETLYEHITKCLLVLSKDKITHVIRRVAVKNLTKLCGNHPKLFNSRHVLHLLDKEFQSDQLDIKLVILESLYDLFLLEERKSVRNTGVNSTLSSNSILKKKLLKTNRVEFANDGVCSALATRFLDNILQLCLLRDLKNSLVAIRLLKLILKFGYTNPSHSIPTVIALFASTSQYIRHVAYELLEDLFEKYETLVFSSLSRGVTKAIHYSIHTDEKYYYKHDHFLSLLEKLCGTGKKNGPKFFKVLKRIMQSYLDDITDLTSTNSSVQKSIFVLCTNISNITFVSQYDLVSLLKTIDLTTDRLKEVIMDEIGDNVSSLSVSEEKLSGIILIQLSLQDLGTYLLHLYGLRDDVLLLDIVEESELKNKQLPAKKPDISKFSAQLENIEQYSSNGKLLTYFRKHVKDT
notes: Scc2, S. cerevisiae; source: S. cerevisiae W303, in vivo, whole-cell extract
B2: Scc2 T1175C (natural protein, S. cerevisiae, UniProt Q04002 1-1493, looked up)
chain: B1 chain with C369D, T1175C
notes: as for B1

Legend:
Smc3^QQ K1004C = target: T1, Smc3^QQ K1004C; test: cross-linking; in vivo BMOE cross-link of cysteine pairs in yeast cells arrested in late G1 by non-degradable Sic1(9m); Scc1-PK immunoprecipitated, western blot, band intensities quantified; details: partners not purified
[1] = target: T2, Smc3^QQ W483R R1008I Q67C; test: as above; details: partners not purified

Binder	crosslinking efficiency relative to wild type (Smc3^QQ K1004C)	crosslinking efficiency relative to wild type [1]
B1	~10%	
B2		~70%
